# Measured values published in the supplement of paper PMC12042874.
# ± gives the uncertainty stated by the source.
# Assay: amyloid nucleation score (Sup35N fusion, yeast selection) (log enrichment); library NNK2; higher = more nucleation; inactive = no reads after selection
# Summary of the method: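 Plasmid inserts were Illumina-sequenced at input and output from psi-negative yeast expressing Sup35N fused to peptides of 20 random codons. The yeast were induced with 100 μM copper sulfate for 24 hours and grown 7 days at 30°C on medium lacking adenine and uracil, and sequences with under 100 input reads were excluded. Nucleation score is the DiMSum log enrichment of output over input reads, centred on the mode score of non-aggregating sequences.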
row,Substance,amyloid nucleation score
1,VDLSLTHYCARSNYLGGPSF,3.17 ± 0.076
2,VDNIVHMWDRNWSPGRYMDR,-0.679 ± 0.44
3,VDNNVGSWPLWP,-0.08 ± 1
4,VDNSLVNMLTAMGWSGFMHT,0.255 ± 0.49
5,VDPHFFIRLFLEYHNVMSWY,inactive
6,VDRESRFWWEGVQGFLDYWV,-0.614 ± 0.79
7,VDRFPVLVPKGWHMRRWCIR,0.669 ± 0.39
8,VDSTFSHSSSFWELYRPTHL,-1.41 ± 1.1
9,VDSYHGYTDRNALSFLCSLV,0.342 ± 0.23
10,VDTGEVNTF,1.76 ± 0.086
11,VDTRRMARKS,1.28 ± 0.27
12,VDTRS,0.382 ± 0.8
13,VEAIWHWVCYWSGMWSLGPG,3.69 ± 0.057
14,VEMLFLSFMRPVLLGTMVAV,0.007 ± 1.1
15,VESLRLRRSMVRNLILSSSC,-0.125 ± 0.63
16,VEVGLIVGSCSILI,-0.525 ± 0.64
17,VFCSSRFCIEECGC,-0.453 ± 0.64
18,VFFFKRLYTKVCF,inactive
19,VFGVLPIIGYPVRVLCVRFI,-0.43 ± 1.1
20,VFGWS,0.745 ± 0.22
21,VFIRAGIVFQFWCNG,7.22 ± 0.043
22,VFKRNQ,0.769 ± 0.41
23,VFLVHPTFSFKNRVCLNFVW,-0.081 ± 1.1
24,VFMFMTQVSRKSYALPRTAA,3.02 ± 0.12
25,VFNSTFANLW,2.6 ± 0.092
26,VFRVCEMDSSLFHYGLALDR,0.521 ± 0.3

row,Substance,amyloid nucleation score
1,VFSGTSMRGTEEIKMSWCEK,7.686 ± 0.044
2,VFSTTSLNV,-0.647 ± 0.34
3,VFSYYMSRFLGATCMYKAAG,5.1 ± 0.072
4,VFTSGSRCHPWLE,1.45 ± 0.27
5,VFTVLYALSCLSFIFVTV,4.04 ± 0.047
6,VFWGILMRGVRRTFSDCAGT,-1.47 ± 0.75
7,VFWITAQMYY,2.18 ± 0.076
8,VFYNIL,inactive
9,VFYVTYTS,5.76 ± 0.074
10,VGGQRHWYLYHDSLHFPQLE,0.396 ± 0.62
11,VGGVIYAYGFVFF,7.381 ± 0.029
12,VGKWVRGQTSLLLVAWSAIY,0.28 ± 0.61
13,VGLNYNAMAHTSRGSF,0.236 ± 0.38
14,VGPPEIWVEFFAV,-0.813 ± 1.1
15,VGRNYLWYRTMPDIYCQVCG,1.62 ± 0.077
16,VGTILAPGGLWGMEVCWQTK,3.06 ± 0.12
17,VGTPEHKLFYGLCVALGQFQ,inactive
18,VGVWATGRGCSISEYNGKNR,1.09 ± 0.12
19,VHFMIMQNSNCYCVKHIDFM,9.425 ± 0.04
20,VHLLGDFGLASQRRNECKLL,0.477 ± 0.28
21,VHLTAVWCLDRRRVRKIFIV,-0.802 ± 0.76
22,VICLCVLFRGSCRIKILDIV,-1.37 ± 1.1
23,VICNLDCLEVEGGILDQ,-1.04 ± 1.1
24,VIDVKFVGYILQVYVGVSFG,0.026 ± 1.1
25,VIEMRHDRFFTVYSVEITAG,0.623 ± 0.52
26,VIFIINELYGCIASNERVCA,6.281 ± 0.049

row,Substance,amyloid nucleation score
1,VIFTGKDLLVSLQTKCLAVW,0.942 ± 0.81
2,VIGTTGMYLCVVLETIHNWC,1.07 ± 0.26
3,VIIINIVFKSGMGQLLGHRR,6.53 ± 0.074
4,VIKTG,inactive
5,VIQIVNFSDNIMTCLHNHLQ,5.64 ± 0.086
6,VIVCCGSCLHRE,9.721 ± 0.05
7,VIWHWVAGH,5.71 ± 0.087
8,VIYLIGSHYTLVSNRLYEIG,8.186 ± 0.08
9,VIYLVLGKTRLNIELSVLST,1.16 ± 0.45
10,VIYMNAGLYLRLKRRFDYVV,0.72 ± 0.58
11,VKGGSRS,-0.186 ± 0.49
12,VKGISWGLRFS,inactive
13,VKGKE,2.31 ± 0.14
14,VKIMMELPLKIDGFLSHVRR,0.088 ± 0.24
15,VKLTLRVLLMSRTETHTVCR,0.494 ± 0.44
16,VKNFTPFRHILVITYNITFN,1.9 ± 0.14
17,VKPVSVFL,-0.11 ± 0.63
18,VKQWT,1.74 ± 0.24
19,VKSRRLTYNS,0.192 ± 0.79
20,VKSTYAYPPNVVDPHIGWGH,0.99 ± 0.24
21,VLACTEGNVLFEDDLRTKGL,1.56 ± 0.35
22,VLAKISTTE,0.705 ± 0.15
23,VLASWSDFKSRGRGNSSVSG,1.24 ± 0.33
24,VLDSINVSVCSWRVSCVTWL,7.709 ± 0.033
25,VLEFFLKSSF,3.1 ± 0.14
26,VLEGIYLLMKVCLIYPRSYD,-1.8 ± 1.1

row,Substance,amyloid nucleation score
1,VLIFMIKVWARITLMGYSRL,-0.666 ± 0.3
2,VLKCGHKYLVIDSWKL,1.78 ± 0.092
3,VLKPYM,-1.3 ± 0.54
4,VLLLAQHVLSGSNFTMG,3.44 ± 0.045
5,VLLRDNGLELFAP,0.779 ± 0.3
6,VLLRVRRCYSVPTFRVWSAT,1.39 ± 0.18
7,VLLTNQRMVFCMGRFAPRVG,-0.556 ± 0.32
8,VLPQDKNMILYYKSLLHLFC,0.823 ± 0.44
9,VLRSVRIFLDN,1.3 ± 0.15
10,VLSEI,0.607 ± 0.25
11,VLSLHDSVLLYRSAGIRYGW,5.03 ± 0.058
12,VLSNKFI,inactive
13,VLSNYGNYISDWQLQLRLT,-0.149 ± 0.32
14,VLSVISLFGHILVMFLERKV,-0.13 ± 0.76
15,VLTVWPYHCAIVEILSGCVL,5.98 ± 0.081
16,VLVCRFQSIFGILVVASCVK,-1.53 ± 0.55
17,VLWCDKWVGNNMKDGELTLW,0.446 ± 0.43
18,VLYFLLLFFRD,inactive
19,VMKFMWKMMLNRERAPYHVL,-0.784 ± 0.49
20,VMLSLMDKLEYMPV,1.31 ± 0.32
21,VMNHSQL,3.92 ± 0.051
22,VMTIVIFGLYNY,2.35 ± 0.18
23,VNAFLSLKSKACHWACGNDD,3.67 ± 0.055
24,VNEIWYDLDYEKVGFV,2.81 ± 0.074
25,VNFLWE,-0.447 ± 1.1
26,VNFYSALSSDNTRMYWLLTV,-0.898 ± 1.1

row,Substance,amyloid nucleation score
1,VNLSTGSRDLRGYWTTPIFQ,-0.815 ± 0.54
2,VNRPATPFEGSQCLIIYSRV,-0.613 ± 0.45
3,VPCRSPVSGASKRTYLLINV,0.045 ± 0.31
4,VPKAWTVWAQVPINWSARQA,0.737 ± 0.62
5,VPLCDVYWA,-0.902 ± 0.61
6,VPTCN,0.123 ± 0.54
7,VQDYFFSCFATRSV,3.26 ± 0.059
8,VQGLHCWIG,inactive
9,VQISWRFVPWI,1.79 ± 0.12
10,VQYMHNRMVLWFFSDPLKDR,2.58 ± 0.099
11,VRCSVCVGACEHGPVN,1.27 ± 0.61
12,VRDSSNYMTLFRCSNFWHTR,6.488 ± 0.051
13,VRDVKLLPKMVGSNIIGSVL,inactive
14,VRFFYSFVPT,inactive
15,VRFIAR,inactive
16,VRFPTSLFSAEQCTPALCSV,0.066 ± 1
17,VRFQELAR,0.343 ± 0.27
18,VRFSQKYCSVDIAMQRLFMV,-0.625 ± 0.25
19,VRFSVLRFGKLCPSGLWRVR,0.255 ± 1.1
20,VRGAIVQKALDCKSVDKSLE,inactive
21,VRGLFVLTVLEVS,-0.161 ± 1.1
22,VRLRTHMFY,-0.831 ± 0.76
23,VRNGFKMRRRMSSPVCETLL,-0.642 ± 1.1
24,VRPFECGFTLPVWGG,0.923 ± 0.81
25,VRVDGPTLWCTQVRLSGERA,0.951 ± 0.17
